In US20150104808A1 (Janssen / Centocor, published 2015):
Numbering of substitutions follows the chain as printed.

B1: ECB38 (designed binder)
chain: MLPAPKNLVVSEVTEDSARLSWDDPWAFYESFLIQYQESEKVGEAIVLTVPGSERSYDLTGLKPGTEYTVSIYGVHNVYKDTNMRGLPLSAIFTTAPAPAPAPAPLPAPKNLVVSRVTEDSARLSWTAPDAAFDSFWIRYFEFLGSGEAIVLTVPGSERSYDLTGLKPGTEYVVNIMGVKGGKISPPLSAIFTTAPAPAPAPAPLAEAKVLANRELDKYGVSDYYKNLINNAKTVEGVKALLDEILAALP
B2: ECB147v3-PEG24 (designed binder)
chain: LPAPKNLVVSEVTEDSARLSWDDPWAFYESFLIQYQESEKVGEAIVLTVPGSERSYDLTGLCPGTEYTVSIYGVHNVYKDTNMRGLPLSAIFTTAPCPAPAPAPLPAPKNLVVSRVTEDSARLSWTAPDAAFDSFWIRYFEFLGSGEAIVLTVPGSERSYDLTGLCPGTEYVVNIMSVKGGSISPPLSAIFTTAPCPAPAPAPLAEAKVLANRELDKYGVSDYYKNLINNAKTVEGVKALLDEILAALP
modifications: PEG24-maleimide on the engineered cysteines
B3: ECB147v5-PEG24 (designed binder)
chain: B2 chain with C97A, C196A
modifications: PEG24-maleimide on the engineered cysteines
B4: ECB147v6-PEG24 (designed binder)
chain: B2 chain with C97A, C166K, C196A
modifications: PEG24-maleimide on the engineered cysteine
B5: ECB147v7-PEG24 (designed binder)
chain: B2 chain with C62K, C166K
modifications: PEG24-maleimide on the engineered cysteines
B6: P54CR4-31 (designed binder, not shown: small tags and cut ends)
chain: LPAPKNLVVSEVTEDSLRLSWTAPDAAFDSFLIQYQESEKVGEAINLTVPGSERSYDLTGLKPGTEYTVSIYGVLGSYVFEHDVMLPLSAEFTT
B7: P114AR5P74-A5 (designed binder, not shown: small tags and cut ends)
chain: LPAPKNLVVSRVTEDSARLSWTAPDAAFDSFWIRYDEVVVGGEAIVLTVPGSERSYDLTGLKPGTEYYVNILGVKGGSISVPLSAIFTT
B8: P114AR5P75-E9 (designed binder, not shown: small tags and cut ends)
chain: B7 chain with W32F, V38F, V39L, V40R, G41S, Y68W, N70T, S78L, I79V, V81T
B9: P114AR7P92-F6 (designed binder, not shown: small tags and cut ends)
chain: B7 chain with D36F, V38F, V39L, V40G, G41S, Y68V, S78G, I79L
B10: P114AR7P92-G8 (designed binder, not shown: small tags and cut ends)
chain: B7 chain with W32V, D36F, V38F, V39L, V40G, G41S, Y68V, N70Q, S78Y, V81I
B11: P114AR7P93-G8 (designed binder, not shown: small tags and cut ends)
chain: LPAPKNLVVSRVTEDSARLSWTAPDAAFDSFWIRYFEFLGSGEAIVLTVPGSERSYDLTDLKPGTEYGVTINGVKGGRVSTPLSAIFTT
B12: P114AR7P93-H9 (designed binder, not shown: small tags and cut ends)
chain: B11 chain with D60G, G68V, T70Q, N72I, R78H, V79I, T81L
B13: P114AR7P94-A3 (designed binder, not shown: small tags and cut ends)
chain: B11 chain with D60G, G68V, T70N, N72M, R78K, V79I, T81P
B14: P114AR7P94-E5 (designed binder, not shown: small tags and cut ends)
chain: B11 chain with D60G, G68A, T70N, N72M, T81V
B15: P114AR7P95-F10 (designed binder, not shown: small tags and cut ends)
chain: B7 chain with D36F, V38F, V39T, V40T, G41A, Y68V, L72M, V81P

The binders below were run against T1, EGFR (epidermal growth factor receptor) on cells (human, UniProt P00533 25-1210) (assay: cell-based or functional assay).
For B1, the “IC50, inhibition of EGF-stimulated EGFR phosphorylation (Tyr1173) in NCI-H292” value (from here on “IC50, inhibition … (Tyr1173) in NCI-H292”) was 2.3 nM.
In the case of B2, the “IC50, inhibition … (Tyr1173) in NCI-H292” value is reported as 1.6 nM.
In the case of B3, the “IC50, inhibition … (Tyr1173) in NCI-H292” value is reported as 0.9 nM.
In the case of B4, the “IC50, inhibition … (Tyr1173) in NCI-H292” value is reported as 1.4 nM.
In the case of B5, the “IC50, inhibition … (Tyr1173) in NCI-H292” value is reported as 1.4 nM.

Each binder was assayed against T1, EGFR (epidermal growth factor receptor) … (assay: A431 cell binding, anti-His-Alexa488 fluorescence).
Experimental: A431 cells were plated at 5,000/well in opaque black 96-well plates and allowed to attach overnight at 37° C., in a humidified 5% CO₂ atmosphere. […] Supernatant was removed and cells were washed 3 times with 150 μL/well of FACS stain buffer. Cells were incubated with 50 μL/well of anti-penta His-Alexa488 antibody conjugate (Qiagen) diluted 1:100 in FACS stain buffer for 20 minutes at room temperature. Cells were washed 3 times with 150 μL/well of FACS stain buffer, after which wells were filled with 100 μL of FACS stain buffer and read for fluorescence at 488 nm using an Acumen eX3 reader. Data were plotted as raw fluorescence signal against the logarithm of the FN3 domain molar concentration and fitted to a sigmoidal dose-response curve with variable slope using GraphPad Prism 4 (GraphPad Software) to calculate EC₅₀ values.
B6 was tested, and the EC50 was over 20 µM.

The binders below were run against c-Met (hepatocyte growth factor receptor) on cells (human, UniProt P08581 25-1390) (assay: cell-based or functional assay).
With B1 the “IC50, inhibition of HGF-stimulated c-Met phosphorylation (Tyr1349) in NCI-H292” value (shortened to “IC50, inhibition … (Tyr1349) in NCI-H292”) was 1.3 nM.
With B2 the “IC50, inhibition … (Tyr1349) in NCI-H292” value was 0.5 nM.
B3 was tested, and the “IC50, inhibition … (Tyr1349) in NCI-H292” value was 0.4 nM.
For B4, the “IC50, inhibition … (Tyr1349) in NCI-H292” value was 0.4 nM.
In the case of B5, the “IC50, inhibition … (Tyr1349) in NCI-H292” value is reported as 0.5 nM.

The binders below were run against Recombinant human c-Met Fc chimera (human) (UniProt P08581) (assay: HGF competition on coated c-Met Fc chimera, competitor biotinylated HGF).
With B7 the IC50 was 5.2 nM.
Work on B8 yielded an IC50 of 51.9 nM.
Binder B9 has an IC50 of 2.2 nM.
With B10 the IC50 was 1.6 nM.
For B11, the IC50 was 1 nM.
In the case of B12, the IC50 is reported as 2.9 nM.
With B13 the IC50 was 0.2 nM.
For B14, the IC50 was 0.7 nM.
In the case of B15, the IC50 is reported as 1.4 nM.
